Test results from patent US20160031999A1 (CSL, published 2016).
Changes are numbered by the printed parent chain.

T1: human IL-11Rα on transfected cells (human, UniProt Q14626 23-422)
T1 sequence: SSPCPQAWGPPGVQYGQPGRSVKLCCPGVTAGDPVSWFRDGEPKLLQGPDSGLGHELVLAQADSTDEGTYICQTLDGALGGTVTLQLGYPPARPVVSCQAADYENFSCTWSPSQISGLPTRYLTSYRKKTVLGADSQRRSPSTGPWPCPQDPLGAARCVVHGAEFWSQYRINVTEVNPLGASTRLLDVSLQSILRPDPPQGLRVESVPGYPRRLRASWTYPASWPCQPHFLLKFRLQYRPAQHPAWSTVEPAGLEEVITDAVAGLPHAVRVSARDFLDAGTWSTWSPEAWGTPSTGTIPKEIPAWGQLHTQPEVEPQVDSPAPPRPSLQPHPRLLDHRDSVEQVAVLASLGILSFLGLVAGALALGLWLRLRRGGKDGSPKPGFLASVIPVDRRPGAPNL

T2: human IL-11Rα (form used in the assay not stated) (human, UniProt Q14626 23-363, limits assumed)
T2 construct: also called hIL-11R; hIL-11Rα
T2 sequence: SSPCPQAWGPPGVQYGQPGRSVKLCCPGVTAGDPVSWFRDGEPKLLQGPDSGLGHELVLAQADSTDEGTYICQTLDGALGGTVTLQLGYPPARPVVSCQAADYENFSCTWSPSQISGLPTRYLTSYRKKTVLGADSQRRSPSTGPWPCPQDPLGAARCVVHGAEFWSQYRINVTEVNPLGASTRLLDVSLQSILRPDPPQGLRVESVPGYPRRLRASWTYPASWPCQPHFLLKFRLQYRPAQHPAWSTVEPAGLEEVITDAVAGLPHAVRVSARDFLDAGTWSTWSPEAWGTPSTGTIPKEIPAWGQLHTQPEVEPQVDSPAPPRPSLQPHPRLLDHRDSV

B1: hu8E2-TS-63 (antibody, V domains shown)
VH: EVQLLESGGGLVQPGGSLRLSCAASGFTFSWYSMTWVRQAPGKGLEWVSSIVPSGGHTQYADSVKGRFTISRDNSKNTLYLQMNSLRAEDTAVYYCAKGPGWGSFDLWGRGTLVTVSS
VL: DIQMTQSPSSLSASVGDRVTITCQASQDINNYLNWYQQKPGKAPKLLIYDASNLQTGVPSRFSGSGSGTDFTFTISSLQPEDIATYYCQQYDTQQPNFGPGTKVDIK
B2: hu8E2-TS-101 (antibody, V domains shown)
VH: B1 VH with S54W, G56D, H57L
VL: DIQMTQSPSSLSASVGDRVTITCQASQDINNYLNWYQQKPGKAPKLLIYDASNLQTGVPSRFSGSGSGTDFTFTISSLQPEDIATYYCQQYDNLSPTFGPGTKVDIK
B3: hu8E2-TS-221 (antibody, V domains shown)
VH: B1 VH with D106W, L107Y
VL: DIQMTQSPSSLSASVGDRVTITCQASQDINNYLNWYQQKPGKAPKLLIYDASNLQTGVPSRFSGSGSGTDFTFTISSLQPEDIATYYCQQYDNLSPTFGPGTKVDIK
B4: hu8E2-TS-89 (antibody, V domains shown)
VH: B1 VH with S30W, W31R, Y32W, M34I
VL: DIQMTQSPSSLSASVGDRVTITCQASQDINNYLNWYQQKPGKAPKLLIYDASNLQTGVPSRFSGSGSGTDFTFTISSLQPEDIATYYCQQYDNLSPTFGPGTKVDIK
B5: hu8E2-TS-214 (antibody, V domains shown)
VH: B1 VH with D106W, L107F
VL: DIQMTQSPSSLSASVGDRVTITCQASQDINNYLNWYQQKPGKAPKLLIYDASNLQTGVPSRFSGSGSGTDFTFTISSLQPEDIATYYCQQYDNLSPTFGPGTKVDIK
B6: hu8E2-TS-115 (antibody, V domains shown)
VH: B1 VH with S54H, G56D, H57L
VL: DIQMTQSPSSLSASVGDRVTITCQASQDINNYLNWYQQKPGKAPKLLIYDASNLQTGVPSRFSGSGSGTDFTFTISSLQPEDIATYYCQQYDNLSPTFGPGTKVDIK
B7: hu8E2-TS-135 (antibody, V domains shown)
VH: B1 VH with G99P, P100L, G101D, S104L
VL: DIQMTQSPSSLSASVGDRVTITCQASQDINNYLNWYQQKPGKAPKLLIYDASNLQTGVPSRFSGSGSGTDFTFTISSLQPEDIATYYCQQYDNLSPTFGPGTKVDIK
B8: hu8E2-TS-92 (antibody, V domains shown)
VH: B1 VH with Y32W, M34I
VL: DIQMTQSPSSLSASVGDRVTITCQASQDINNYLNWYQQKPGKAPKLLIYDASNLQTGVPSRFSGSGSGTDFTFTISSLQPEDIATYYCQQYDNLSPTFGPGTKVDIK
B9: hu8E2-TS-107 (antibody, V domains shown)
VH: B1 VH with S54W, G56D, H57F
VL: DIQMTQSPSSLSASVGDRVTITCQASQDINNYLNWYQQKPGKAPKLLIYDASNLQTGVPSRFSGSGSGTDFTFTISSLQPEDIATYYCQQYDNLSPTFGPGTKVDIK
B10: hu8E2-TS-143 (antibody, V domains shown)
VH: B1 VH with G99P, P100H, G101D, S104L
VL: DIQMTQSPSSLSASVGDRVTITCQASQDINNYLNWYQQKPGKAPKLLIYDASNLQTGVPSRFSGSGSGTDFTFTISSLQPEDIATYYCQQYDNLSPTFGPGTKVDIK
B11: hu8E2-TS-303 (antibody, V domains shown)
VH: B1 VH
VL: B1 VL with I29V, N30D, N31Y, Y32W, L33V, N34E, T93N, Q94L, Q95S, N97T
B12: hu8E2-TS-305 (antibody, V domains shown)
VH: B1 VH
VL: B1 VL with I29V, N30G, N31I, L33V, N34E, T93N, Q94L, Q95S, N97T
B13: hu8E2-TS-69 (antibody, V domains shown)
VH: B1 VH with S30G, Y32W, M34V
VL: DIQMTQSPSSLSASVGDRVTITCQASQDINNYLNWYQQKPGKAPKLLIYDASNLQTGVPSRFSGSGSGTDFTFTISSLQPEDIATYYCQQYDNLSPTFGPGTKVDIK
B14: hu8E2-TS-218 (antibody, V domains shown)
VH: B1 VH with D106W, L107E
VL: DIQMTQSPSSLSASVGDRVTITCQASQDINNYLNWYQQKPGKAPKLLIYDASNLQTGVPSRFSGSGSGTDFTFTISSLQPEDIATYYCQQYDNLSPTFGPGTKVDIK
B15: hu8E2-TS-156 (antibody, V domains shown)
VH: B1 VH with G99P, P100E, G101D, S104R
VL: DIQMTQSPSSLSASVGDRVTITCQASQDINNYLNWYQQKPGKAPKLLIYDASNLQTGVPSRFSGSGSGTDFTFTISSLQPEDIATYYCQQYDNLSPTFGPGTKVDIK
B16: hu8E2-TS-76 (antibody, V domains shown)
VH: B1 VH with S30W, W31R, Y32W, M34I
VL: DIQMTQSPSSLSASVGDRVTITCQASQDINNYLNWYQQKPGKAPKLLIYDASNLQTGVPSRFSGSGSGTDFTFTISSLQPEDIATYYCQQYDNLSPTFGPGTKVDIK
B17: hu8E2-TS-64 (antibody, V domains shown)
VH: B1 VH
VL: B1 VL with D92E, T93S, Q95W, N97Q
B18: hu8E2-TS-91 (antibody, V domains shown)
VH: B1 VH with S30G, Y32W, M34L
VL: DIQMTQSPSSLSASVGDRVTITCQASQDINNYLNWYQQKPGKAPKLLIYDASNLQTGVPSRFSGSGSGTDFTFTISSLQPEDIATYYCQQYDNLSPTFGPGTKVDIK
B19: hu8E2-TS-215 (antibody, V domains shown)
VH: B1 VH with D106W, L107Q
VL: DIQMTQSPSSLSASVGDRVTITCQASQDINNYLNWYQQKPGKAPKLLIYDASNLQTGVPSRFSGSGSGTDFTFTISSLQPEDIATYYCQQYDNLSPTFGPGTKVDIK
B20: hu8E2-TS-222 (antibody, V domains shown)
VH: B1 VH with S104T, D106A, L107Y
VL: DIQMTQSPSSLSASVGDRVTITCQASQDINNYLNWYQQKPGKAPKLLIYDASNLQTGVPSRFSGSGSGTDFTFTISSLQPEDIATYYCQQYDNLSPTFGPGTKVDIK
B21: hu8E2-TS-224 (antibody, V domains shown)
VH: B1 VH with D106W, L107T
VL: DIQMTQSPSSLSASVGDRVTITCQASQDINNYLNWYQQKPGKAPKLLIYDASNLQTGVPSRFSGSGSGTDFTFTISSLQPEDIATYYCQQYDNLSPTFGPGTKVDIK
B22: hu8E2-TS-82 (antibody, V domains shown)
VH: B1 VH with S30W, W31R, Y32W, M34V
VL: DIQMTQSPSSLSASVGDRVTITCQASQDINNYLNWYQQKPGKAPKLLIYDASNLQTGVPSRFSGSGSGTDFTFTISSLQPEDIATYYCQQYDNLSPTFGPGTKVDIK
B23: hu8E2-TS-66 (antibody, V domains shown)
VH: B1 VH with S30A, Y32W, M34I, T35A
VL: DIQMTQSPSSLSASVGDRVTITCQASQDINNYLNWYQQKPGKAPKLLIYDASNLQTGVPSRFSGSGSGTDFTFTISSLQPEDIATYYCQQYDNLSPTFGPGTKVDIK
B24: hu8E2-TS-103 (antibody, V domains shown)
VH: B1 VH with S54Y, G56D, H57L
VL: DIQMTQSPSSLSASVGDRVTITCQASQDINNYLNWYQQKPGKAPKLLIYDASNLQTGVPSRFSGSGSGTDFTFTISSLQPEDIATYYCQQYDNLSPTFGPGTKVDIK
B25: hu8E2-TS-79 (antibody, V domains shown)
VH: B1 VH with S30A, Y32F, M34V
VL: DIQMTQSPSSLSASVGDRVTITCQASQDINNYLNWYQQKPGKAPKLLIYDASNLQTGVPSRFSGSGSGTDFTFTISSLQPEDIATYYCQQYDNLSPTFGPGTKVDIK
B26: hu8E2-TS-151 (antibody, V domains shown)
VH: B1 VH with G99P, P100H, G101D, S104R
VL: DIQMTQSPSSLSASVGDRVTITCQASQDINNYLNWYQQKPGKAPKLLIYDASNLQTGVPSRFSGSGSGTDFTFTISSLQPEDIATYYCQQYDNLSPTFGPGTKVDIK
B27: hu8E2-TS-134 (antibody, V domains shown)
VH: B1 VH with G99P, P100E, G101D, S104L
VL: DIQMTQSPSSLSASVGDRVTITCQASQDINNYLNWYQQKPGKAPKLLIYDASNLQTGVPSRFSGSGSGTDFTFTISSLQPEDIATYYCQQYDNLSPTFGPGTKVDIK
B28: hu8E2-TS-71 (antibody, V domains shown)
VH: B1 VH with S30W, W31R, Y32W, M34T
VL: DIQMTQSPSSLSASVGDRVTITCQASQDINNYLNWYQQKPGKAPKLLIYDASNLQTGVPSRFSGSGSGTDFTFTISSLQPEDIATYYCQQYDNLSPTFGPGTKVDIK
B29: hu8E2-TS-97 (antibody, V domains shown)
VH: B1 VH with S54W, G55A, G56D, H57Y
VL: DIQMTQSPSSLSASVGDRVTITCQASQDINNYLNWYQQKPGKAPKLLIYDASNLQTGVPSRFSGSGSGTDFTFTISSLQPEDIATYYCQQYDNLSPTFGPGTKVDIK
B30: hu8E2-TS-108 (antibody, V domains shown)
VH: B1 VH with S54W, G56T, H57L
VL: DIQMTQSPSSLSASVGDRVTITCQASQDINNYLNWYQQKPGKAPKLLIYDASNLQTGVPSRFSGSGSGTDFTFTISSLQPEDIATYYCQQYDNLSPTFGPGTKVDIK
B31: hu8E2-TS-129 (antibody, V domains shown)
VH: B1 VH with G99P, P100E, G101D, S104M
VL: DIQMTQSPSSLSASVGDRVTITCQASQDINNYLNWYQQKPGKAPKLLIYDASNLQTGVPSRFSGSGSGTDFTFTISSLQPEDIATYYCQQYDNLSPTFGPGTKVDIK
B32: hu8E2-TS-88 (antibody, V domains shown)
VH: B1 VH with S30W, W31R, Y32W, M34T
VL: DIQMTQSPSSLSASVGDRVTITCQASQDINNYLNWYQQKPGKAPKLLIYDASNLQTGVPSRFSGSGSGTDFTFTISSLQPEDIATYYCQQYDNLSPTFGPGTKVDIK
B33: hu8E2-TS-104 (antibody, V domains shown)
VH: B1 VH with S54W, G56T, H57I
VL: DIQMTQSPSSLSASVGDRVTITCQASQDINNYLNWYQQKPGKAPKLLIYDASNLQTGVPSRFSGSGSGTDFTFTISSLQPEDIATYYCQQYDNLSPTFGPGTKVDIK
B34: hu8E2-TS-136 (antibody, V domains shown)
VH: B1 VH with G99P, P100L, G101D, S104R
VL: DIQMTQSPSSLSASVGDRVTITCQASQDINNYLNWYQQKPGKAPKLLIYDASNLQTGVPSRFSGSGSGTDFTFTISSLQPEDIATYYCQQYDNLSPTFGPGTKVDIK
B35: hu8E2-TS-133 (antibody, V domains shown)
VH: B1 VH with G99P, P100V, G101D, S104R
VL: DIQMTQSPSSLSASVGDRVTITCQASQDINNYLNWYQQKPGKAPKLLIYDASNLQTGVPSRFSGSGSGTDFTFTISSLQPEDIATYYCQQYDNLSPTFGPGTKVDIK
B36: hu8E2-TS-140 (antibody, V domains shown)
VH: B1 VH with G99P, P100N, G101D, S104L
VL: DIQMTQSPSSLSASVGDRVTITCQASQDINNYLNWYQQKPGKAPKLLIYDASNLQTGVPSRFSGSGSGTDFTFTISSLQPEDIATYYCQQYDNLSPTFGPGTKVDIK
B37: hu8E2-TS-306 (antibody, V domains shown)
VH: B1 VH
VL: B1 VL with I29V, N30D, N31K, L33V, N34E, T93N, Q94L, Q95S, N97T

Target: T1, human IL-11Rα on transfected cells
Assay: cell-based or functional assay

Row | Fold increase in potency relative to 8E2 [fold] | IC50 [mg/L] | Binder
1 | 5.1 | 0.27 | B1
2 | 2.1 | 0.19 | B2
3 | 2.6 | 0.2 | B3
4 | 1.4 | 0.12 | B4
5 | 1.6 | 0.31 | B5
6 | 5.7 | 0.26 | B6
7 | 4.8 | 0.2 | B7
8 | 2.3 | 0.18 | B8
9 | 7.4 | 0.2 | B9
10 | 1.6 | 0.39 | B10
11 | 1.4 | 0.35 | B11
12 | 2.1 | 0.23 | B12
13 | 0.9 | 1.46 | B13
14 | 2.7 | 0.19 | B14
15 | 4.9 | 0.13 | B15
16 | 3.4 | 0.32 | B16
17 | 5.4 | 0.26 | B17
18 | 1.3 | 0.34 | B18
19 | 1.5 | 0.34 | B19

Row | Fold increase in potency relative to 8E2 [fold] | IC50 [mg/L] | Binder
20 | 3.3 | 0.16 | B20
21 | 1.2 | 0.39 | B21
22 | 4.3 | 0.26 | B22
23 | 0.5 | 2.84 | B23
24 | 4.5 | 0.33 | B24
25 | 5.3 | 0.21 | B25
26 | 2.4 | 0.26 | B26
27 | 4.3 | 0.22 | B27
28 | 3.8 | 0.29 | B28
29 | 1.6 | 0.26 | B29
30 | 12.7 | 0.12 | B30
31 | 4.7 | 0.2 | B31
32 | 3 | 0.36 | B32
33 | 5.2 | 0.28 | B33
34 | 6 | 0.16 | B34
35 | 4.1 | 0.23 | B35
36 | 1.5 | 0.42 | B36
37 | 3.3 | 0.15 | B37

Target: T2, human IL-11Rα (form used in the assay …)
Assay: Biacore, pH 8.5, 37°C

Row | Kd [nM] | Binder
38 | 0.642 | B1
39 | 0.785 | B2
40 | 0.634 | B3
41 | 4.5 | B4
42 | 1.11 | B5
43 | 0.735 | B6
44 | 0.525 | B7
45 | 3.2 | B8
46 | 1.29 | B9
47 | 0.416 | B10
48 | 4.09 | B11
49 | 1.58 | B12
50 | 3.56 | B13
51 | 1.39 | B14
52 | 0.631 | B15
53 | 2.73 | B16
54 | 0.636 | B17
55 | 4.73 | B18
56 | 1.85 | B19

Row | Kd [nM] | Binder
57 | 1.91 | B20
58 | 1.91 | B21
59 | 2.05 | B22
60 | 7.46 | B23
61 | 0.497 | B24
62 | 2.13 | B25
63 | 0.242 | B26
64 | 0.52 | B27
65 | 2.49 | B28
66 | 1.22 | B29
67 | 1.93 | B30
68 | 0.63 | B31
69 | 2.25 | B32
70 | 0.995 | B33
71 | 0.232 | B34
72 | 0.513 | B35
73 | 0.471 | B36
74 | 1.07 | B37
